The record followed here is patent publication US12214004B2, “Strains having effects of preventing or treating cancers” (Genome And Company, priority 2018, dated 2025).

Broadly, the cell viability is the share of living cells, or the viability signal relative to a control.

Where two headings read alike, the source gives them in different places. Some results are limits rather than exact numbers.

For data set [1], the system named is HCT116. The data set can be described thus: HCT116 cell viability, anticancer chemotherapeutic agent with GEN3033.
Data set [2] concerns HCT116. The data set can be described thus: Cell lysis ability of PBMC against cancer cells (CFSE/7-AAD), MG731. The class given is cell-based. The settings on record: cancer cell death caused by PBMC set to 100%. The procedure:
PBMCs (peripheral blood mononuclear cells) were collected from the human blood using Ficoll, and then red blood cells were removed through RBC lysis buffer, and the number of living cells was counted, and the cells were cultured for 24 hours in a round bottom 96 well plate containing lactic acid bacteria (6×10^5/50 ul/well) by adding PBMC 3 x 10^4 cells/50 μl to each well.
(§1) The colon cancer cell line HCT116 was mixed with 5 μM of CFSE (carboxyfluorescein succinimidyl ester) in RPMI medium without FBS, and reacted at 37° C. for 5 minutes, and then RPMI1640 medium containing FBS was added, and stored on ice for 10 minutes. After the supernatant was removed by centrifugation, the obtained cells were mixed with RPMI1640 containing 10% FBS, and then the number of cells was counted, and 3×10^4 cells/100 μl were added to each well of the above prepared 96 well plate.
Staining for CFSE and 7-AAD using FACSDiVa software (BD Biosciences) was measured to confirm the cell lysis ability of PBMC against cancer cell lines, and the results are shown in FIG. 9.

Data set [3] concerns HCT116. The data set can be described thus: Cell lysis ability of PBMC against cancer cells (CFSE/7-AAD), GEN3033. It is filed as cell-based, human. The settings on record: cancer cell death caused by PBMC set to 100%. Here is the method:
PBMCs (peripheral blood mononuclear cells) were collected from the human blood using Ficoll, and then red blood cells were removed through RBC lysis buffer, and the number of living cells was counted, and the cells were cultured for 24 hours in a round bottom 96 well plate containing lactic acid bacteria (3×10^5/50 ul/well) by adding PBMC 3 x 10^4 cells/50 μl to each well.
as §1
Staining for CFSE and 7-AAD using FACSDiVa software (BD Biosciences) was measured to confirm the cell lysis ability of PBMC against cancer cell lines, and the results are shown in FIG. 29.

For data set [4], the system named is MC38 cancer cells. Briefly: MC38 tumor-induced model in C57BL/6 mice, MG731. It is filed as in vivo, mouse. Conditions: administered in combination with MG731. The procedure: Prior to constructing a tumor model, a sample of lactic acid bacteria was administered to mice for 2 weeks to increase intestinal establishment and immunity, and then 2×10^5 MC38 cancer cells were injected subcutaneously in the vicinity of the right hip of 8 C57BL/6 mice per group to construct a tumor-induced model. Simultaneously with injection of tumor cells, a sample of lactic acid bacteria was orally administered to the animal model for 3 weeks (from Monday to Saturday). The sample of lactic acid bacteria to be administered was diluted in 200 μL of PBS so as to be 1×10^9 of CFU per head and then administered orally.

For data set [5], the system named is HCT116.
Setting [6] is: HCT116, combination treatment with 0.5% GEN3033, compared to the agent alone.

In the case of `O=P1(N(CCCl)CCCl)NCCCO1` (stereo not drawn) [cyclophosphamide], the cancer cell death result in data set [1] (setting [6]) was “remarkably high”.
Atezolizumab [anti-PD-L1]: the “cancer cell death (cytotoxicity)” value in data set [2] (alone) is given as 133.6%; in data set [2] (in combination with MG731), 221.6%; in data set [3] (alone) it was 123.5%; in data set [3] (in combination with GEN3033), 154.0%.
For `N.N.[Cl][Pt][Cl]` [Cisplatin, cisplatin], the cell viability entry in data set [1] (HCT116, 7 μM Cisplatin in combination with 0.5% GEN3033, compared to 7 μM Cisplatin alone) is on record as “remarkably reduced”.
For the compound `O=c1[nH]cc(F)c(=O)[nH]1` [5-FU, fluorouracil], in data set [1] (setting [6]), the cancer cell death result is “remarkably high”.
Same read-out and setting: the value for `CC(=O)O[C@H]1C(=O)[C@@]2(C)[C@H]([C@H](OC(=O)c3ccccc3)[C@]3(O)C[C@H](OC(=O)[C@H](O)[C@@H](NC(=O)c4ccccc4)c4ccccc4)C(C)=C1C3(C)C)[C@]1(OC(C)=O)CO[C@@H]1C[C@@H]2O` [paclitaxel] was “remarkably high”.
On to `O=C1[O][Pt]2([NH][C@@H]3CCCC[C@H]3[NH]2)[O]C1=O` [oxaliplatin], for which, in data set [4], the tumor inhibitory effect entry is on record as “more excellent”. Moreover, the cell viability in data set [5] is no less than 90%. The cancer cell death result in data set [1] is “remarkably high”.
With Ipilimumab [antiCTLA-4], the “cancer cell death (cytotoxicity)” value in data set [2] (alone) turned out to be 108%; in data set [2] (in combination with MG731) it was 214.4%; in data set [3] (alone), 116.0%; in data set [3] (in combination with GEN3033) it was 128.3%.
